We go through one substance from patent US20040058445A1.

This assay concerns the target MHC class I (framework determinant) on human tumor cells of patient 1C.

Consider MAb w6/32 (antibody), for which the inhibition of lysis of autologous 1C tumor cells in a 4-hour 51Cr release assay was found to be 5 % lysis.
